Source: PMC4771821, “Structural and spectroscopic characterisation of a heme peroxidase from sorghum” (Journal of Biological Inorganic Chemistry, 2015)

Substrate: COc1ccccc1O
Assay: purified protein
Type: biochemical, Sorghum bicolor
Conditions: heme; Ca2+ raises activity

B1: SK 5912 sorghum peroxidase (cationic class III peroxidase) (Sorghum bicolor) (protein)
chain: ARQPPLAPGLSFDFYKRSCPKAESIVRSFVQDAVRRDVGLAAGLLRLHFHDCFVQGCDASVLLDGSATGPGEQQAPPNLTLRPTAFKAINDIHDRLHKECGGTVVSCSDVLALAARDSVVVSGGPSYKVPLGRRDSASFATQQDVLSGLPPPTAAVPALLAVLSKINLDATDLVALSGGHTIGLGHCTSFEDRLFPRPDPTLNATFAGQLRRTCPAKGTDRRTPLDVRTPNAFDNKYYVNLVNREGLFTSDQDLFSNARTRALVDKFARSQRDFFDQFAFSVVKMGQIKVLTGTQGQIRTNCSARNAAGTTMLPWSVSVVEEAADESLGVF
notes: native enzyme isolated from grain
Km: 1600 ± 400 µM
